Assay results reported in publication doi:10.1101/2024.02.04.578783.

Tests used:
BCL2 D103E-mCherry = BCL2 D103E-mCherry (UniProt P10415); assay: single-molecule pull-down and co-IP
BCL2-mCherry (wild type) = BCL2-mCherry (wild type) (UniProt P10415); assay: single-molecule pull-down and co-IP

| Kd (BCL2 D103E-mCherry) [nM] | Kd (BCL2-mCherry (wild type)) [nM] | Substance |
| --- | --- | --- |
| 32.1 | 53.6 | BH3 domain of BIM, eGFP-labeled (domain or fragment) |
|  | 27.3 | BIMEL, TMD-truncated, eGFP-labeled (domain or fragment) |
|  | 63.3 | BIML, TMD-truncated, eGFP-labeled (domain or fragment) |
|  | 15.7 | BIMS, TMD-truncated, eGFP-labeled (domain or fragment) |
